Molecular target: calmodulin (vertebrate CaM amino acid sequence, encoded by a rat cDNA) (rat, UniProt P0DP29 1-149)
Assay: cryo-EM structure

binding result: binds
B1: bovine endothelial nitric oxide synthase (eNOS) with the phosphomimetic S1179D substitution (enzyme)
chain: MGNLKSVGQEPGPPCGLGLGLGLGLCGKQGPASPAPEPSRAPAPATPHAPDHSPAPNSPTLTRPPEGPKFPRVKNWELGSITYDTLCAQSQQDGPCTPRCCLGSLVLPRKLQTRPSPGPPPAEQLLSQARDFINQYYSSIKRSGSQAHEERLQEVEAEVASTGTYHLRESELVFGAKQAWRNAPRCVGRIQWGKLQVFDARDCSSAQEMFTYICNHIKYATNRGNLRSAITVFPQRAPGRGDFRIWNSQLVRYAGYRQQDGSVRGDPANVEITELCIQHGWTPGNGRFDVLPLLLQAPDEAPELFVLPPELVLEVPLEHPTLEWFAALGLRWYALPAVSNMLLEIGGLEFSAAPFSGWYMSTEIGTRNLCDPHRYNILEDVAVCMDLDTRTTSSLWKDKAAVEINLAVLHSFQLAKVTIVDHHAATVSFMKHLDNEQKARGGCPADWAWIVPPISGSLTPVFHQEMVNYILSPAFRYQPDPWKGSATKGAGITRKKTFKEVANAVKISASLMGTLMAKRVKATILYASETGRAQSYAQQLGRLFRKAFDPRVLCMDEYDVVSLEHEALVLVVTSTFGNGDPPENGESFAAALMEMSGPYNSSPRPEQHKSYKIRFNSVSCSDPLVSSWRRKRKESSNTDSAGALGTLRFCVFGLGSRAYPHFCAFARAVDTRLEELGGERLLQLGQGDELCGQEEAFRGWAKAAFQASCETFCVGEEAKAAAQDIFSPKRSWKRQRYRLSTQAEGLQLLPGLIHVHRRKMFQATVLSVENLQSSKSTRATILVRLDTAGQEGLQYQPGDHIGICPPNRPGLVEALLSRVEDPPPPTESVAVEQLEKGSPGGPPPSWVRDPRLPPCTLRQALTFFLDITSPPSPRLLRLLSTLAEEPSEQQELETLSQDPRRYEEWKWFRCPTLLEVLEQFPSVALPAPLLLTQLPLLQPRYYSVSSAPNAHPGEVHLTVAVLAYRTQDGLGPLHYGVCSTWLSQLKTGDPVPCFIRGAPSFRLPPDPYVPCILVGPGTGIAPFRGFWQERLHDIESKGLQPAPMTLVFGCRCSQLDHLYRDEVQDAQERGVFGRVLTAFSREPDSPKTYVQDILRTELAAEVHRVLCLERGHMFVCGDVTMATSVLQTVQRILATEGDMELDEAGDVIGVLRDQQRYHEDIFGLTLRTQEVTSRIRTQDFSLQERHLRGAVPWAFDPPGPDTPGP
